PMC4120848
Where two headings read alike, the source gives them in different places.

Key:
Assay in all cases: mMAPS
[1] = molecular target: endogenous EGFR (HeLa cells) (human (endogenous in HeLa)) (UniProt P00533)
[2] = molecular target: endogenous EGFR phosphorylated at Tyr1068 (HeLa cells) (human (endogenous in HeLa)) (UniProt P00533)
[3] = molecular target: endogenous EGFR (HeLa cells) (human (endogenous in HeLa)) (UniProt P00533); remark: listed apart in the source
[4] = molecular target: endogenous EGFR phosphorylated at Tyr1068 (HeLa cells) (human (endogenous in HeLa)) (UniProt P00533); remark: listed apart in the source

percent of total detected EGFR events that are EGF-EGFR [1]: 4.35% | percent of total detected EGFR events that are EGF-EGFR-pTyr1068 [2]: 2.64% | percent of total detected EGFR events that are EGF-EGFR [3]: 3.3% | percent of total detected EGFR events that are EGF-EGFR-pTyr1068 [4]: 1.27%
Substance: A647-conjugated EGF (ligand)
